From PMC9478924
Values belong to the binder of their own block, whether it stands above or below them.

Legend:
Test in all cases: SPR
CHI-1P = molecular target: CHI-1P
[1] = molecular target: CHI-R1 (Rhipicephallus pulchellus (zebra tick or yellow back tick) | not stated)
[2] = molecular target: CHI-1R (not stated | Rhipicephallus pulchellus (zebra tick or yellow back tick))
CHI-P1 = molecular target: CHI-P1
[3] = molecular target: EVA-RPU02 (Rhipicephallus pulchellus (zebra tick or yellow back tick))
EVA-P974, A0A023 = molecular target: T1, EVA-P974, A0A023; settings: remark: other sources report otherwise
T1 chain: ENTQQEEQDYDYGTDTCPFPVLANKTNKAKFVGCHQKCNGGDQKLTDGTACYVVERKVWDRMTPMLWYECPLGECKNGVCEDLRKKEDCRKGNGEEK

EVA-4, P0C8E9 = molecular target: T2, EVA-4, P0C8E9; settings: remark: other sources report otherwise
T2 chain: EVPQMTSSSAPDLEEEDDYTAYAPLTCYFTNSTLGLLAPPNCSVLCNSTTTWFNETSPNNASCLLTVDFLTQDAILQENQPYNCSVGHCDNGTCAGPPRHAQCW

[4] = molecular target: CHI-PR (not stated | Rhipicephallus pulchellus (zebra tick or yellow back tick))

Kd (CHI-1P): 0.191 µM
B1: CCL1 (ligand)
chain: KSMQVPFSRCCFSFAEQEIPLRAILCYRNTSSICSNEGLIFKLKRGKEACALDTVGWVQRHRKMLRHCPSKRK

Kd (CHI-1P): 0.149 µM | Kd [1]: 0.134 µM | Kd [2]: 0.06 µM | Kd (CHI-P1): 0.079 µM | Kd [3]: 0.0324 µM | koff [3]: 0.024 s⁻¹ | kon [3]: 580000 M⁻¹ s⁻¹
B2: CCL14 (ligand)
chain: TKTESSSRGPYHPSECCFTYTTYKIPRQRIMDYYETNSQCSKPGIVFITKRGHSVCTNPSDKWVQDYIKDMKEN

Kd [3]: 0.503 µM | koff [3]: 0.069 s⁻¹ | kon [3]: 140000 M⁻¹ s⁻¹
B3: CCL15 (ligand)
chain: QFTNDAETELMMSKLPLENPVVLNSFHFAADCCTSYISQSIPCSLMKSYFETSSECSKPGVIFLTKKGRQVCAKPSGPGVQDCMKKLKPYSI

Kd (EVA-P974, A0A023): 0.299 µM
B4: CCL15, Q16663 22-113 (ligand)
chain: B3 chain
modifications: here or on the partner: biotin on the Avi-tag (Bir-A ligase)

Kd (EVA-4, P0C8E9): 0.158 µM
B5: CCL4, P13236 24-92 (ligand)
chain: APMGSDPPTACCFSYTARKLPRNFVVDYYETSSLCSQPAVVFQTKRSKQVCADPSESWVQEYVYDLELN
modifications: here or on the partner: biotin on the Avi-tag (Bir-A ligase)

Kd (CHI-1P): 0.206 µM | Kd [4]: 0.315 µM | Kd [2]: > 0.5 µM | Kd [3]: 0.651 µM | koff [3]: 0.35 s⁻¹ | kon [3]: 490000 M⁻¹ s⁻¹
B6: CCL18 (ligand)
chain: AQVGTNKELCCLVYTSWQIPQKFIVDYSETSPQCPKPGVILLTKRGRQICADPNKKWVQKYISDLKLNA

Kd (CHI-1P): 0.025 µM | Kd [2]: > 0.5 µM
B7: CCL22 (ligand)
chain: GPYGANMEDSVCCRDYVRYRLPLRVVKHFYWTSDSCPRPGVVLLTFRDKEICADPRVPWVKMILNKLSQ

Kd (CHI-1P): 0.182 µM | Kd [2]: > 0.5 µM
B8: CCL16 (ligand)
chain: QPKVPEWVNTPSTCCLKYYEKVLPRRLVVGYRKALNCHLPAIIFVTKRNREVCTNPNDDWVQEYIKDPNLPLLPTRNLSTVKIITAKNGQPQLLNSQ
